These results are taken from patent US20220033520A1.

Experiment [1] concerns the target human FcRn complex (FCGRT and beta-2 microglobulin), recombinant, purified (human) (UniProt P55899). Kind of experiment: SPR, protein L capture, pH 6, kinetic. A general note: Surface plasmon resonance follows binding to a sensor surface in real time, without labels.
For experiment [2] the target is unchanged. Kind of experiment: SPR, protein L capture, pH 7.4, steady state.
Experiment [3] addresses human FcRn (FCGRT and beta-2 microglobulin) expressed on MDCK II cells (human) (UniProt P55899). Kind of experiment: cell-based or functional assay.

human FcRn complex (FCGRT and beta-2 microglobulin), recombinant, purified (human), sequence (P55899 24-297 limits assumed, chain 1 of 2): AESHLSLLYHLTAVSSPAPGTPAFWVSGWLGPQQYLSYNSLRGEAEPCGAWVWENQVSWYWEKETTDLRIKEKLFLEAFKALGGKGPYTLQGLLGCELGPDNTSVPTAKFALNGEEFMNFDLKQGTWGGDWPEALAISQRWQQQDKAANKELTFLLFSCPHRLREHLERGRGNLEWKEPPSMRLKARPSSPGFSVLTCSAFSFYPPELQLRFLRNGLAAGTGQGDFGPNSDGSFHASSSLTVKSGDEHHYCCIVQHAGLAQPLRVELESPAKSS
human FcRn complex (FCGRT and beta-2 microglobulin), recombinant, purified (human), sequence (P61769 21-119 limits assumed, chain 2 of 2, further chain): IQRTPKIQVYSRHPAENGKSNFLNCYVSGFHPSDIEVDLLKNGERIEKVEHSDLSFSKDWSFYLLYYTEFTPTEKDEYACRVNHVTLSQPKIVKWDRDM
human FcRn (FCGRT and beta-2 microglobulin) expressed on MDCK II cells (human), sequence (P55899 24-365, chain 1 of 2): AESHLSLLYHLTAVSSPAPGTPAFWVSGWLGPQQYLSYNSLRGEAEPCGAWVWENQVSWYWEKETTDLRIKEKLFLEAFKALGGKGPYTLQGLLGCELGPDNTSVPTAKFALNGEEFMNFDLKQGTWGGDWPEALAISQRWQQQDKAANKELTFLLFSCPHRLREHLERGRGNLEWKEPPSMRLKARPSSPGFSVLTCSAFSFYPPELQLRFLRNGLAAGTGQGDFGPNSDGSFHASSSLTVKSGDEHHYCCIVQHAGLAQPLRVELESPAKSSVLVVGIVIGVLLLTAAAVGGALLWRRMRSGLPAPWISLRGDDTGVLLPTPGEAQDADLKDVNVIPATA
human FcRn (FCGRT and beta-2 microglobulin) expressed on MDCK II cells (human), sequence (P61769 21-119, chain 2 of 2, further chain): as the sequence (P61769 21-119 limits assumed, chain 2 of 2, further chain) above
antibody comprising wild-type hIgG4 (Table 2), sequence (Fc): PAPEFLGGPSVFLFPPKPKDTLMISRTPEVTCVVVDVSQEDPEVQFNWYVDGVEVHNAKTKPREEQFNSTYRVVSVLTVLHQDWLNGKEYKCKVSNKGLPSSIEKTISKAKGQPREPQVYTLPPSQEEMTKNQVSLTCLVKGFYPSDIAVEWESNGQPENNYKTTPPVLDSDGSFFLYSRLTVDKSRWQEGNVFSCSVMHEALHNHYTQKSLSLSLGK

A word on the Kd: it is the free concentration of one partner at which half of the binding sites on the other are occupied at equilibrium, for simple one-to-one binding. For orientation: koff means the rate constant with which the complex falls apart. In general, kon refers to the second-order rate constant of association. Take “anti-BACE1 hIgG1 antibody, Fc modification T9 (T307Q/Q311I/N434Y)”: in experiment [1], the dissociation constant Kd amounted to 520 nM, the koff worked out at 0.00767 s⁻¹ and the kon worked out at 14800 M⁻¹ s⁻¹. For the same substance, the Kd in experiment [2] was found to be 1930 nM. Besides, in experiment [3], the Transcytosis Normalized to WT (normalized to WT) was 140.

As to “anti-BACE1 hIgG1 antibody, Fc modification T4 (M252Y/M428L/N434Y)”, in experiment [1], the Kd is 30 nM, the koff was found to be 0.0201 s⁻¹ and the kon was found to be 660000 M⁻¹ s⁻¹. The Kd in experiment [2] came out at 2200 nM. The substance further showed a Transcytosis Normalized to WT (normalized to WT) in experiment [3] of 100.

For the substance “anti-BACE1 hIgG1 antibody, Fc modification T16 (N286E/H433K/N434Y)”, in experiment [1], the Kd was 66.7 nM, the koff came out at 0.0271 s⁻¹ and the kon was found to be 406000 M⁻¹ s⁻¹. In experiment [2], the Kd is 4980 nM. The Transcytosis Normalized to WT (normalized to WT) in experiment [3] came out at 55.

For the substance “anti-BACE1 hIgG1 antibody, Fc modification T11 (T307Q/H433K/N434Y)”, in experiment [1], the Kd worked out at 37 nM, the off-rate (koff) was 0.0166 s⁻¹ and the kon amounted to 445000 M⁻¹ s⁻¹. For the same substance, the Kd in experiment [2] is 4800 nM. Moreover, the Transcytosis Normalized to WT (normalized to WT) in experiment [3] was determined as 65.

For the substance “anti-BACE1 hIgG1 antibody, Fc modification S2 (N286E)”, in experiment [1], the dissociation constant (Kd) turned out to be 303 nM, the koff is 0.00316 s⁻¹ and the association rate constant (kon) was 10400 M⁻¹ s⁻¹. In addition, the Transcytosis Normalized to WT (normalized to WT) in experiment [3] came out at 1.7.

In the case of “anti-BACE1 hIgG1 antibody, Fc modification S1 (M252Y)”, in experiment [1], the Kd worked out at 117 nM, the koff was 0.00172 s⁻¹ and the kon is 14700 M⁻¹ s⁻¹. Also, in experiment [3], the Transcytosis Normalized to WT (normalized to WT) was 1.7.

Take “anti-BACE1 hIgG1 antibody, Fc modification T18 (Q311A/M428L/N434Y)”: the Transcytosis Normalized to WT (normalized to WT) in experiment [3] was found to be 140.

For “anti-BACE1 hIgG1 antibody, Fc modification T6 (M252Y/N434Y/Y436I)”, in experiment [2], the Kd stood at 459 nM. In experiment [3], this substance gave a Transcytosis Normalized to WT (normalized to WT) of 133.

As to “anti-BACE1 hIgG1 antibody, Fc modification T19 (Q311A/H433K/N434Y)”, in experiment [1], the Kd was 53.5 nM, the koff was 0.0096 s⁻¹ and the kon came out at 179000 M⁻¹ s⁻¹. In addition, in experiment [2], the Kd is 4480 nM. This substance also returned a Transcytosis Normalized to WT (normalized to WT) in experiment [3] of 55.

The substance “anti-BACE1 hIgG1 antibody, Fc modification S4 (H310A)” displayed a Transcytosis Normalized to WT (normalized to WT) in experiment [3] of 1.1.

On to “anti-BACE1 hIgG1 antibody, Fc modification S6 (Q311I)”, for which, in experiment [1], the Kd worked out at 171 nM, the off-rate constant (koff) was 0.00157 s⁻¹ and the kon amounted to 9190 M⁻¹ s⁻¹. Besides, the Transcytosis Normalized to WT (normalized to WT) in experiment [3] turned out to be 1.7.

“anti-BACE1 hIgG1 antibody, Fc modification T17 (N286E/N434Y/Y436I)”: in experiment [1], the Kd is 53 nM, the koff is 0.0334 s⁻¹ and the kon turned out to be 631000 M⁻¹ s⁻¹. For the same substance, in experiment [2], the Kd amounted to 6080 nM. In experiment [3], this substance returned a Transcytosis Normalized to WT (normalized to WT) of 65.

Turning to “anti-BACE1 hIgG1 antibody, Fc modification S10 (N434W)”, in experiment [1], the Kd came to 54.9 nM, the koff was 0.051 s⁻¹ and the kon worked out at 929000 M⁻¹ s⁻¹. For the same substance, the dissociation constant Kd in experiment [2] came to 5530 nM. In addition, the Transcytosis Normalized to WT (normalized to WT) in experiment [3] was 26.

As to “anti-BACE1 hIgG1 antibody, Fc modification D7 (H433K/N434Y)”, in experiment [1], the Kd turned out to be 92.2 nM, the koff came to 0.00192 s⁻¹ and the kon was found to be 20800 M⁻¹ s⁻¹. For the same substance, the Transcytosis Normalized to WT (normalized to WT) in experiment [3] came to 9.4.

As for “anti-BACE1 hIgG1 antibody, Fc modification T8 (T307Q/Q311A/N434Y)”, in experiment [1], the Kd is 37 nM, the koff was found to be 0.0319 s⁻¹ and the kon is 854000 M⁻¹ s⁻¹. For the same substance, the Kd in experiment [2] worked out at 1680 nM. For the same substance, the Transcytosis Normalized to WT (normalized to WT) in experiment [3] came out at 64.

As for “antibody comprising modified Fc M428L/N434A (LA) (Table 2)”, in experiment [1], the Kd amounted to 99.2 nM, the koff stood at 0.00371 s⁻¹ and the kon was 37400 M⁻¹ s⁻¹. The substance further yielded a Transcytosis Normalized to WT (normalized to WT) in experiment [3] of 5.1.

For “anti-BACE1 hIgG4 antibody, Fc modification T6-IgG4 (M252Y/N434Y/Y436I)”, the Kd in experiment [2] was 412 nM. Further, the Transcytosis Normalized to WT (normalized to WT) in experiment [3] is 66.

For “anti-BACE1 hIgG1 antibody, Fc modification T7 (T307Q/N286E/N434Y)”, in experiment [1], the Kd amounted to 19 nM, the koff stood at 0.0177 s⁻¹ and the kon was 931000 M⁻¹ s⁻¹. Further, the Kd in experiment [2] was found to be 1120 nM. The substance further registered a Transcytosis Normalized to WT (normalized to WT) in experiment [3] of 91.

Consider “anti-BACE1 hIgG1 antibody, Fc modification T26 (H433K/N434Y/Y436I)”, for which the Transcytosis Normalized to WT (normalized to WT) in experiment [3] amounted to 71.

In the case of “anti-BACE1 hIgG1 antibody, Fc modification T5 (M252Y/H433K/N434Y)”, in experiment [1], the Kd stood at 34 nM, the dissociation rate constant (koff) came out at 0.0357 s⁻¹ and the on-rate (kon) was found to be 1.05e+06 M⁻¹ s⁻¹. For the same substance, the dissociation constant (Kd) in experiment [2] was 730 nM. The substance further gave a Transcytosis Normalized to WT (normalized to WT) in experiment [3] of 112.

As to “anti-BACE1 hIgG1 antibody, Fc modification S12 (Y436I)”, in experiment [1], the Kd is 201 nM, the koff was determined as 0.00193 s⁻¹ and the on-rate constant (kon) was 9590 M⁻¹ s⁻¹. In experiment [3], the Transcytosis Normalized to WT (normalized to WT) is 1.8.

Take “anti-BACE1 hIgG1 antibody, Fc modification S8 (H433K)”: in experiment [1], the Kd turned out to be 363 nM, the off-rate constant (koff) worked out at 0.0048 s⁻¹ and the kon turned out to be 13200 M⁻¹ s⁻¹. Besides, the Transcytosis Normalized to WT (normalized to WT) in experiment [3] came to 2.9.

Turning to “anti-BACE1 hIgG1 antibody, Fc modification S7 (M428L)”, in experiment [1], the Kd turned out to be 178 nM, the koff turned out to be 0.00202 s⁻¹ and the kon was determined as 11300 M⁻¹ s⁻¹. In experiment [3], this substance yielded a Transcytosis Normalized to WT (normalized to WT) of 2.

In the case of “anti-BACE1 hIgG1 antibody, Fc modification T22 (Q311I/H433K/N434Y)”, the figures for the Kd in experiment [1] and in experiment [2] were 64 nM and 9030 nM, respectively. Moreover, the Transcytosis Normalized to WT (normalized to WT) in experiment [3] is 131.

For “anti-BACE1 hIgG1 antibody, Fc modification T12 (T307Q/N434Y/Y436I)”, the Transcytosis Normalized to WT (normalized to WT) in experiment [3] stood at 112.

On to “anti-BACE1 hIgG1 antibody, Fc modification S11 (N434Y)”, for which, in experiment [1], the Kd is 73.6 nM, the koff was found to be 0.0141 s⁻¹ and the kon amounted to 191000 M⁻¹ s⁻¹. The substance further displayed a Transcytosis Normalized to WT (normalized to WT) in experiment [3] of 7.8.

Regarding “antibody comprising wild-type hIgG1 (Table 2)”, in experiment [1], the Kd amounted to 732 nM, the koff turned out to be 0.0164 s⁻¹ and the kon was 22300 M⁻¹ s⁻¹. Besides, the Transcytosis Normalized to WT (normalized to WT) in experiment [3] amounted to 1.

“antibody comprising wild-type hIgG4 (Table 2)”: in experiment [1], the Kd is 563 nM, the koff was 0.0119 s⁻¹ and the kon amounted to 21100 M⁻¹ s⁻¹. The substance further gave a Transcytosis Normalized to WT (normalized to WT) in experiment [3] of 1.

On to “anti-BACE1 hIgG1 antibody, Fc modification S9 (N434F)”, for which, in experiment [1], the Kd was determined as 100 nM, the koff was 0.0419 s⁻¹ and the kon turned out to be 418000 M⁻¹ s⁻¹. Also, in experiment [3], the Transcytosis Normalized to WT (normalized to WT) amounted to 6.3.
